This note sets out measurements from PMC2998059.

In this assay the target is GST-PC1 C-terminus deletion mutant SH3. As to the kind of experiment: pull-down.

Substance “myc-tagged QLα12 (constitutively active, GTPase-deficient Gα12) (from UniProt P27600 48-379) (natural protein)” displayed a binding relative to PC1-FLCT of 50%.
